Biological target: PgMYB2 (TF fusion) (Panax ginseng, UniProt A0A1Z1CH15 1-280)
Assay: EMSA; LightShift Chemiluminescent EMSA kit protocol, room temperature, 20 min, native PAGE; protein stored in 20 mM Tris-HCl pH 7.2; binding buffer not stated
Conditions: protein: recombinant; tags: N-terminal trigger factor (TF) + 6xHis (pCold/TF); label: biotin; blunt

Chain of PgMYB2 (TF fusion) (A0A1Z1CH15 entry or part of it): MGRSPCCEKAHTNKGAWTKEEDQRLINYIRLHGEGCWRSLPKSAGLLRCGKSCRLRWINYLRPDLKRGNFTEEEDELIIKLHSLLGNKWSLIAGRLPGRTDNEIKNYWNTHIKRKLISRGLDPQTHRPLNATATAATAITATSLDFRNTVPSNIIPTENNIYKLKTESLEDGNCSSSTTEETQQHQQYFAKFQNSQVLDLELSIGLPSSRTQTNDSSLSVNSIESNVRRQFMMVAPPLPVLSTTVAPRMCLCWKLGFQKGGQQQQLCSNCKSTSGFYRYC

B1: MBSII probe (dsDNA)
DNA 1: GACTGGCATTGATTTAAAAGGCGGT
DNA 2: ACCGCCTTTTAAATCAATGCCAGTC
binding result: binds
